Data as given in US20240010735A1 (EISAI R AND D MANAGEMENT, published 2024).

Experiments:
Test in all cases: ELISA: EphA4 extracellular region-SEAP-His (1 nM) captured on anti-alkaline phosphatase antibody, antibody B titrated with human IgG 100 µg/mL, HRP anti-human IgG, OD450 as % of top concentration
[1] = target: T1, mouse EphA4 extracellular region-SEAP-His protein (mouse)
T1 construct: also called mouse EphA4 extracellular region-SEAP-His 10
Procedure: (§1) Anti-alkaline phosphatase antibodies (Thermo […]) were coated onto the wells of a 96-well plate (Nunc). After incubating at 4° C. overnight, the wells were blocked at room temperature for 1 hour by 1% Block Ace (DS Pharma Biomedical). After washing 3 times with 0.05% Tween 20/PBS (Thermo […]), mouse, rat, monkey, and human EphA4 extracellular region-SEAP-His proteins (final concentration 1 nM) were seeded into the wells, and incubated at room temperature for 1 hour. After washing 3 times, human IgG solution (100 μg/mL, Mitsubishi Pharma Corporation) and antibody B (0, 0.00013, 0.00064, 0.0032, 0.016, 0.08, 0.4, 2, 10 μg/mL) were supplemented to the wells, and incubated at room temperature for 1 hour. Horseradish peroxidase-labeled donkey anti-human IgG antibody (Jackson ImmunoResearch Laboratories) was added, and incubated at room, temperature for 1 hour. After washing 3 times, TMBZ (3,3′,5,5′-tetramethylbenzidine, Sigma) solution was added to the wells, and upon confirmation of modest coloring, an equal amount of quenching solution (1 N H₂SO₄, Wako Pure Chemicals) was added to the wells, and absorbance at 450 nm was read by a microplate reader (PerkinElmer).

[2] = target: T2, human EphA4 extracellular region-SEAP-His protein (human, UniProt P54764 20-547)
T2 construct: also called human EphA4 extracellular region-SEAP-His 10; not shown: secretory alkaline phosphatase (SEAP); histidine tag
Procedure: as §1

[3] = target: T3, rat EphA4 extracellular region-SEAP-His protein (rat, UniProt D3ZZK3 20-547)
T3 construct: extracellular domain; Its preparation is not described; the limits 20-547 are stated for the Fc-His construct of rat EphA4; not shown: secretory alkaline phosphatase (SEAP); histidine tag
Procedure: as §1

[4] = target: T4, monkey EphA4 extracellular region-SEAP-His protein (monkey)
T4 construct: Its preparation is not described; not shown: secretory alkaline phosphatase (SEAP); histidine tag
Procedure: as §1

Measured: EC50 (read off the curve)

T3 sequence (D3ZZK3 entry or part of it): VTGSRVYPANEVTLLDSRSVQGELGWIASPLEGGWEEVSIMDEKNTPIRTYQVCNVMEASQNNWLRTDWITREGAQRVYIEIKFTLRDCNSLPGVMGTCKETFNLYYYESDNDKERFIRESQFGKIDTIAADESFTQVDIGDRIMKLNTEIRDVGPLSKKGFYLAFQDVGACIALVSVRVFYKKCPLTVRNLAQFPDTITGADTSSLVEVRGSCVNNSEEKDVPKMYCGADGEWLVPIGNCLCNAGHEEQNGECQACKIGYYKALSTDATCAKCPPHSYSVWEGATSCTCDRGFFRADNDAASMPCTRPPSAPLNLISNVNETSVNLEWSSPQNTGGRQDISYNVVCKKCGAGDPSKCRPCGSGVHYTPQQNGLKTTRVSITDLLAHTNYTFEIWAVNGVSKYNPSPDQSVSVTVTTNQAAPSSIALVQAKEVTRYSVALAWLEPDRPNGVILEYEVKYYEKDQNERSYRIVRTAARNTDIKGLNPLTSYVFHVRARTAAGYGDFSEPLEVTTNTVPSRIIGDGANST
T4 sequence (chain, as listed by the source): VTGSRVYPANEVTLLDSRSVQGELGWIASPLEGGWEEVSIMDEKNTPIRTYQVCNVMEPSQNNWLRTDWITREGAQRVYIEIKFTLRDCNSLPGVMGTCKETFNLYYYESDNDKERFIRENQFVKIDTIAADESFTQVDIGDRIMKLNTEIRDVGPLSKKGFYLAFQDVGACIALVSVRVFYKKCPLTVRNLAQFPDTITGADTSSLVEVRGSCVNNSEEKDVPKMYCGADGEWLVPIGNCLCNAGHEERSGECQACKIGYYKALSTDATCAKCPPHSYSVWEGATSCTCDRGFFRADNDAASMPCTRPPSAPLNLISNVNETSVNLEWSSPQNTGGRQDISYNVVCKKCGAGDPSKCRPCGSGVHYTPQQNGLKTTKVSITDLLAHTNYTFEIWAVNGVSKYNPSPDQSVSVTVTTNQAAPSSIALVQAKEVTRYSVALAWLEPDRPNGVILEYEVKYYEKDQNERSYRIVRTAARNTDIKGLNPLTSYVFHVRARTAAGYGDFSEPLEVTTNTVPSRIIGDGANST
T2 sequence (P54764 20-547): as the sequence (chain, as listed by the source) above, with S406N counted along it
T1 sequence (chain, as listed by the source limits assumed): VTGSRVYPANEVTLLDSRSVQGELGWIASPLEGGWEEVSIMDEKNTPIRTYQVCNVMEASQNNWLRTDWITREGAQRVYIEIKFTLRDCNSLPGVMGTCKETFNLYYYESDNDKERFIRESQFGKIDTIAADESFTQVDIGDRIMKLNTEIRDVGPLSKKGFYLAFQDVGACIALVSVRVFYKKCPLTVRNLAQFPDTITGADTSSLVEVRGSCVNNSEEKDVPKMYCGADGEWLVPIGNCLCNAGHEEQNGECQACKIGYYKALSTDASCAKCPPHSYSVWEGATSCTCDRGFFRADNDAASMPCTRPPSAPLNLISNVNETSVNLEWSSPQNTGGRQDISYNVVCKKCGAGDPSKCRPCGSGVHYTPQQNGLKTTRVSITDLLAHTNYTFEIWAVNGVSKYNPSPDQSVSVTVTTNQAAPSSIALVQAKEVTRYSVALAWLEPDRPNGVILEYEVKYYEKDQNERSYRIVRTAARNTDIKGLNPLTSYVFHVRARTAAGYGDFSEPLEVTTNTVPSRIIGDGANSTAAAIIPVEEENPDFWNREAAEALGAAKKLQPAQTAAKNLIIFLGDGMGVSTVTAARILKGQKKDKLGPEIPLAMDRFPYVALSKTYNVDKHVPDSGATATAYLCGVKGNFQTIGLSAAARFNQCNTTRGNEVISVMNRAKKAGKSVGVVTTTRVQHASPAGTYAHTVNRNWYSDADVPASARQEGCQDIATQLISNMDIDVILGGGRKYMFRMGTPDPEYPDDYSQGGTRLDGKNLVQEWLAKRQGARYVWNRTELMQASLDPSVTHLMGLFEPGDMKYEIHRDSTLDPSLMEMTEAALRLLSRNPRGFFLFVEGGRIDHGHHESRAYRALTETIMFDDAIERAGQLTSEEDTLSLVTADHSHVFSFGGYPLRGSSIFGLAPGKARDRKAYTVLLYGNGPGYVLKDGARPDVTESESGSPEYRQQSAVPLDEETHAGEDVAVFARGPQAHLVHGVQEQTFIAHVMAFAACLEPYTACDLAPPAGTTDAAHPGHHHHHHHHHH

B1: humanized anti-EphA4 monoclonal antibody (antibody B) (antibody, human IgG2, V domains shown)
VH: QVQLVESGGGVVQPGRSLRLSCAVSGFSLTRFGVHWVRQAPGKGLEWVAVIWRGGSTDYNAAFMSRLTISKDNSKNTVYLQMNSLRAEDTAVYYCAKESLFGVYYDYGYYSMDYWGQGTTVTVSS
VL: DIQMTQSPSSLSASVGDRVTITCRASQEISGYLSWLQQKPGKAPKRLIYAASTLDSGVPSRFSGSRSGTEYTLTISSLQPEDFATYYCLQYASYPLTFGGGTKVEIKR
notes: expressed in Expi293F cells; also called humanized antibody of antibody A; HK2-42 / L1-8
~0.3 nM: all assays above
